The record followed here is publication PMC10611751, “Dynamic interactions between E-cadherin and Ankyrin-G mediate epithelial cell polarity maintenance” (Nature Communications, 2023).

The labels stand for the following.
B1: Ankyrin-G 24 ANK repeats (residues 38-855) (domain or fragment, UniProt O70511 38-855, looked up)
chain: KSDANASYLRAARAGHLEKALDYIKNGVDVNICNQNGLNALHLASKEGHVEVVSELLQREANVDAATKKGNTALHIASLAGQAEVVKVLVTNGANVNAQSQNGFTPLYMAAQENHLEVVRFLLDNGASQSLATEDGFTPLAVALQQGHDQVVSLLLENDTKGKVRLPALHIAARKDDTKAAALLLQNDTNADIESKMVVNRATESGFTPLHIAAHYGNINVATLLLNRAAAVDFTARNDITPLHVASKRGNANMVKLLLDRGAKIDAKTRDGLTPLHCGARSGHEQVVEMLLDRAAPILSKTKNGLSPLHMATQGDHLNCVQLLLQHNVPVDDVTNDYLTALHVAAHCGHYKVAKVLLDKKANPNAKALNGFTPLHIACKKNRIRVMELLLKHGASIQAVTESGLTPIHVAAFMGHVNIVSQLMHHGASPNTTNVRGETALHMAARSGQAEVVRYLVQDGAQVEAKAKDDQTPLHISARLGKADIVQQLLQQGASPNAATTSGYTPLHLSAREGHEDVAAFLLDHGASLSITTKKGFTPLHVAAKYGKLEVASLLLQKSASPDAAGKSGLTPLHVAAHYDNQKVALLLLDQGASPHAAAKNGYTPLHIAAKKNQMDIATSLLEYGADANAVTRQGIASVHLAAQEGHVDMVSLLLSRNANVNLSNKSGLTPLHLAAQEDRVNVAEVLVNQGAHVDAQTKMGYTPLHVGCHYGNIKIVNFLLQHSAKVNAKTKNGYTPLHQAAQQGHTHIINVLLQNNASPNELTVNGNTALAIARRLGYISVVDTLKVVTEEIMTTTTITEKHKMNVPETMNEVLDMS
notes: Ankyrin-G, 24 ANK repeats, residues 38-855; The ITC methods name 'Trx-AnkG R1-24'; also called AnkG R1-24; AnkG ANK repeats; source: E. coli BL21 (DE3), purified (Ni-NTA, SEC); not shown: Trx, N-terminal, kept; His6, N-terminal, kept
B5: E-cadherin C-terminal domain (residues 734-884) (domain or fragment)
chain: not shown
notes: The ITC methods name 'Trx-E-cadherin'; 15N-labelled for the HSQC titration; also called E-cadherin CTD; CTD; source: E. coli BL21 (DE3), purified (Ni-NTA, SEC); not shown: Trx, N-terminal, kept; His6, N-terminal, kept

Values joined by “and” are separate entries in the source; they are usually repeats but may differ in a detail not shown here. Identical values can stand only once.

What all share (details): both partners purified
Test [1] concerns the target T1, E-cadherin CTD–β-catenin complex (mouse, UniProt P09803 734-884; Q02248 1-781).
T1 construct: Formed beforehand for the ITC titration to AnkG R1-24; in the light scattering experiment the three proteins were mixed together; source: E. coli BL21 (DE3), purified (Ni-NTA, SEC)
In words: SEC-MALS; analytical gel filtration with static light scattering; AnkG R1-24, E-cadherin CTD and β-catenin 1-781 mixed at 1:1:1, 2:1:1, 3:1:1 and 4:1:1 molar ratios; also E-cadherin CTD with β-catenin 1-781 alone.

The target of test [2] is B5. In words: SEC-MALS; FPLC coupled with static light scattering; 70 μM E-cadherin with 70, 140, 210 or 280 μM AnkG (molar ratios 1:1 to 1:4); Superdex 200 increase; 50 mM Tris, 100 mM NaCl, 1 mM EDTA, 1 mM DTT, pH 7.8. (In general: SEC sorts molecules by how far they enter the pores of the column.)
Test [3] concerns the target B1. In words: ITC; E-cadherin proteins in the syringe (e.g. 200 μM Trx-E-cadherin) titrated into AnkG in the cell (e.g. 20 μM Trx-AnkG R1-24); 25 °C; 50 mM Tris, 100 mM NaCl, 1 mM EDTA, 1 mM DTT, pH 7.8; one-site binding model. (In ITC the heat of successive injections is recorded.)
Test [4] has as its target T2, full-length β-catenin 1-781 (mouse, UniProt Q02248 1-781).
T2 construct: also called β-catenin FL; source: E. coli BL21 (DE3), purified (Ni-NTA, SEC)
T2 sequence (looked up): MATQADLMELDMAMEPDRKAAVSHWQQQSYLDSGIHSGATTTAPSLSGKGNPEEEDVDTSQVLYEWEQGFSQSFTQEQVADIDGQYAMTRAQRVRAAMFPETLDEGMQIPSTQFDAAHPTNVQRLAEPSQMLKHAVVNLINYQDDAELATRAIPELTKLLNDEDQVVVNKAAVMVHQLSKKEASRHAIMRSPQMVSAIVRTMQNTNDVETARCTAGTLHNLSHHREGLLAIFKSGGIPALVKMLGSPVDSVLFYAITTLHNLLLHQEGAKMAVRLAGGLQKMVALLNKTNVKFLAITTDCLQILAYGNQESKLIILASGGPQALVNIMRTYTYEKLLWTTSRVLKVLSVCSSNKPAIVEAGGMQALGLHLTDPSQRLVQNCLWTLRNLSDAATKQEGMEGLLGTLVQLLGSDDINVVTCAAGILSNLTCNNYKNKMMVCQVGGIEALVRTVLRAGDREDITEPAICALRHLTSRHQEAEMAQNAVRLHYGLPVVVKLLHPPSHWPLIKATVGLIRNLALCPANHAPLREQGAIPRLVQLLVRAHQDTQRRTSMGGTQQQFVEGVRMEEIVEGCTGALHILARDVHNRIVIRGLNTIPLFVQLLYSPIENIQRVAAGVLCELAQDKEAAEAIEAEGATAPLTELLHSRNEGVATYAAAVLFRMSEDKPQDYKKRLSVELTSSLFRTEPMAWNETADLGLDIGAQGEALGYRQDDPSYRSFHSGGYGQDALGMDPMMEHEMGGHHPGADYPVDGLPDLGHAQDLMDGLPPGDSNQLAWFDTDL
In words: SEC-MALS; analytical gel filtration with static light scattering; AnkG R1-24, E-cadherin CTD and β-catenin 1-781 mixed at 1:1:1, 2:1:1, 3:1:1 and 4:1:1 molar ratios; also E-cadherin CTD with β-catenin 1-781 alone.

Test [5] addresses B1. In words: SEC-MALS; FPLC coupled with static light scattering; 70 μM E-cadherin with 70, 140, 210 or 280 μM AnkG (molar ratios 1:1 to 1:4); Superdex 200 increase; 50 mM Tris, 100 mM NaCl, 1 mM EDTA, 1 mM DTT, pH 7.8.

T1 sequence (P09803 734-884, one chain of several): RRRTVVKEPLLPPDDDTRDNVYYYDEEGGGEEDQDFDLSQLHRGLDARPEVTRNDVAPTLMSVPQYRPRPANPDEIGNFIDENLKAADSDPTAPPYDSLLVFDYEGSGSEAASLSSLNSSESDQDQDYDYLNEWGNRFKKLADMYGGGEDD

For B1, the “stoichiometry N” value is 1 to 2 AnkG R1-24 per E-cadherin CTD and β-catenin in test [1]; 1 AnkG R1-24 per E-cadherin CTD and 2 AnkG R1-24 per E-cadherin CTD in test [2].

B2: E-cadherin residues 828-842 (site-2) (domain or fragment, mouse, UniProt P09803 828-842, looked up)
chain: PYDSLLVFDYEGSGS
notes: For the methyl-TROSY NMR fused to the N-terminus of AnkG R8-24; also called E-cadherin site-2; source: E. coli BL21 (DE3), purified (Ni-NTA, SEC); not shown: Trx, N-terminal, kept; His6, N-terminal, kept
B2 had a Kd in test [3] of around 1.9 µM.

B3: E-cadherin residues 755-770 (site-1) (domain or fragment, mouse, UniProt P09803 755-770, looked up)
chain: YYYDEEGGGEEDQDFD
notes: E-cadherin, mouse, residues 755-770; also called E-cadherin site-1; source: E. coli BL21 (DE3), purified (Ni-NTA, SEC); not shown: Trx, N-terminal, kept; His6, N-terminal, kept
In test [3], B3 had a Kd of around 0.9 µM.

B4: E-cadherin residues 854-869 (site-3) (domain or fragment, mouse, UniProt P09803 854-869, looked up)
chain: ESDQDQDYDYLNEWGN
notes: E-cadherin, mouse, residues 854-869; also called E-cadherin site-3; source: E. coli BL21 (DE3), purified (Ni-NTA, SEC); not shown: Trx, N-terminal, kept; His6, N-terminal, kept
B4 came in with a Kd in test [3] of around 1.8 µM.
B5: in test [4], the binding result is recorded as “binds”. In test [3], the Kd was around 1.3 µM and the “stoichiometry N” value is around 0.22.

B6: E-cadherin 828-884 (including both site-2 and site-3) (domain or fragment)
chain: not shown
notes: source: E. coli BL21 (DE3), purified (Ni-NTA, SEC); not shown: Trx, N-terminal, kept; His6, N-terminal, kept
On to B6, for which, in test [5], the “stoichiometry N” value is 1. In test [3], this molecule gave a Kd of around 1.9 µM.

As a reminder, the stoichiometry N is the number of molecules, sites or subunits per partner or assembly. As usually defined, the Kd is the concentration at which binding is half-saturated. A lower Kd goes with a tighter complex.
